Reference: patent CN106902750A

What was measured:
[1] = target: Myc-GST融合蛋白(Myc标签与谷胱甘肽融合的蛋白); assay: indirect ELISA, Myc-GST coated at 5 μg/mL, HRP anti-His secondary antibody; heat test at 70℃ for 30 min
[2] = target: Myc-GST融合蛋白(Myc标签与谷胱甘肽融合的蛋白); assay: indirect ELISA, Myc-GST coated at 5 μg/mL, HRP anti-His secondary antibody; heat test at 90℃ for 30 min
[3] = target: Myc-GST融合蛋白(Myc标签与谷胱甘肽融合的蛋白); assay: indirect ELISA, Myc-GST coated at 5 μg/mL, HRP anti-His secondary antibody; heat test at 80℃ for 30 min

B1: 抗c-Myc标签单域重链抗体 (VHH, not shown: small tags and cut ends)
VHH: QLQLVESGGGLVQPGESLTLTCVASGGTLENWDIAWFRQAPGKEREGVAYFSSDGIRNYGDSMRGRFKISRDNAKNTAWLQMNRLSVEDTSTYYCAAKERVGRAWRNDGLYRYWGQGTQVTVSS
[1]
  OD450: 1.5 OD450
[2]
  OD450: 1.2 OD450
[3]
  OD450: 1.4 OD450
